Test: soluble on expression in E. coli; label from the status in PepcDB or PDB records

Row | Sequence | soluble on expression in E. coli
1 | MKSSVEKLSETRVKLNVEVPFEELKPEIDQAYKALAQQITIPGFRRGKAPRQLIDARIGRGAVLEQVINDMLPTRYQQVVEENELVVLGQPHIDITKLEDNEVVEFTAEVDVRPEITVPDFSAFAVEVPALKSNDEAIDAQIDKLRERFGELKDTKRKLKTDDFAIIDIEAAIDGEKLEEATTEGMSYQVGAGDLIDGLDTALRGLKAGESAEFTTTLKAGEHEGKEAAVTVTVQQTKERKLPELDEEFVQTASEFDTVEELRESIAEQVAEQAKAEQATAIRDEVLKAALAEATFELPEGVVEDQIHAQLHQLLNQVGGDEAALNAALEAQGTSREQFDADNRKNSEEAVRTQLFLDALAEQEQPEVSQQELTDHILFTAQSYGMDPNQFITQLQQSGQIGNLFSDVRRGKALAAAICRVSVKDDEGKAVDPSEYFGEEEESAEESE | soluble
2 | MIEFSDEDLQKPVRIVIEKIRPYLLKDGGNIEVLGVKSMKIYVALEGACKTCSSSKITLKNVIERQLKMDIHPNLEVVCLENAKEFDKL | not soluble
3 | MAHHHHHHMSWQGPRVLVVGENQWEREAVSRALLNLAVRHGSPYGICYVDLDVAMPMVGCPGTVSAAFVEEPVTAPEDFGVMMPLTFFHGTASVTSATRKRYLDLCVCAAQAATSLGFANSKFEAGGFLIHSLSPSTEIQHDVLSDVLSIFAVTHVVVTGADRELEKFLYNAVLGRTVHFVRLPKLAGVQSPSSAGAEQRRRAQLERYFFGTPRTPLVPVRGVARMSELVLLHAETFEPLSWREVPDLGLAAVVWADTAASAAEANVAGFVALLEVGKQFVSFLAPSGGELPKPFLVVSPSLHLPRELVMPLPVT | not soluble
4 | MIAGGFGAGKTTAVGAVSEITPLSTEEYLTEASADVDSLAGLASKRTTTVAFDFGRLSLPDAPMPLELFLFGTPGQDRFVDLWYDLSRGAVGAVVLVDTRRLESSFTPVSFFEDIGLPFVVAVNRFDGAHRYHPEQVRAALELPAAVPVVTCDAREPNHVAGVLLALVDHAVNCAATTNRAGHTPSTTLQDALEHHHHHH | not soluble
5 | MGSDKIHHHHHHMTGLLSKHDFRVALQEAIAGKASAKAAFSQAWMDGTLQRHHFARWAENHYHYVGPFADYLGYIYNNARDEQDGVKDLLLQSMYEFRHLQEGEAMVSHTDLLIRFAQACGTTRERVESPQACNPITRGMQAWCYATAIRESPVVATAALLVGLASQIPQIYARQIVPLRDPRVYGFSEHEVAFFALRITSDGAHAERGYRIVLDGATTPALQQRCLQFVRWGAEMRYAYAQAIYDQYVAPDLGARRVD | not soluble
6 | MGSDKIHHHHHHMIYRNWLGIIGVACILFVSCKPTEVDVPITYYSSFLLKDTTVMLSKVEMDPMQVNARCMVWDGDKRVLVRTSTTDSIYAVFAYPEMKFLSYTGSLSEYKQILAECNEGFYLVKDDSLYLYHLTDKDLLQKTTTHFLYNSNKIRLSKIKKLNDKMYTAHAYTDPSYNDIRLNEFYMLDAENNILYPKGHYPERTEVRFKTIFDFKFAYAHEVWPKPDGSRILVNYVRTRRFRIYDLSARLLHDVCLDYASNKYVVDADPKRWTTFIRDCFVTDKYIYLLCPEGEQSSLVIVDWEGRPIARYRLDEKIFFFFIDPDRNLFCGINSNNGQSFYFLDLDIN | not soluble
7 | SNAKIGVLQFVSHPSLDLIYKGIQDGLAEEGYKDDQVKIDFMNSEGDQSKVATMSKQLVANGNDLVVGIATPAAQGLASATKDLPVIMAAITDPIGANLVKDLKKPGGNVTGVSDHNPAQQQVELIKALTPNVKTIGALYSSSEDNSKTQVEEFKAYAEKAGLTVETFAVPSTNEIASTVTVMTSKVDAIWVPIDNTIASGFPTVVSSNQSSKKPIYPSATAMVEVGGLASVVIDQHDLGVATGKMIVQVLKGAKPADTPVNVFSTGKSVINKKIAQELGITIPESVLKEAGQVI | soluble
8 | MSLELEAKLAQANEQIKELSKREERVRIARDLHDTLGHTLSLLTLKSQLIQRLAASDPERTKLEAKEMETSSRSALKQVRELVSDMRTVTITEELVNIQHILRAGNITFQYEGADDFSVISPVTQNIISMCMREAVTNIIKHSKATHCAITISQFADKMRIVIRDDGKGAPKEKMFGNGLWGMEERLMLIEGGLTVSDHNGTVVALTIPLIKKAEEGHHHHHH | soluble
9 | MRHMMQLKAPFFSDNATDLPFWWEEARPSPVQTDDLPSSTEVAIIGAGFTGLNAALVLARAGKQVSVFDADEPGYGASSRNGGFLGPGWAFFDTGMQYGADTARQIVEESFHSLQHVKDVVAMEKIDCDLKEVGYFKGAMTPRVYDAIGRNMDRIRKIIPCNVYMVPRSEQHKEIGSDLYHGGVAMPGYCGIHPAKYVKGLAEAANRLGVKIYSNARVSDLEGKNGGFSFKVGSRTIAARQILLAANGYSGSLLPHLKRRIIPVGSGLIATEQLPVEVMDRLMPKRQMLAGSQRVVTYYRPSPDNTRIVFGGRVLNMSGAHESAVANAKYIRSLLLAVFPELASAKITNYWHGQLGFTFDHLPHVQTIDGMYFAGGYNGTGVARASWLGSRVAYEMLGSDLGKTVYRNLPFDGRRFYNGKPYFLPLAVWYYGMLDKWDQRLEHHHHHH | not soluble
10 | MTQAILALSQIEKAFPGVKALDKASLNVYPGRVMALMGENGAGKSTLMKVLTGIYSKDAGSIEYQGQPVSFKGPRDSQLAGISIIHQELNLIPQLTIAENIFLGREMTSPFGRILWDEMHRKADQLLARLNVKHSAKTLLGELSLGEQQMVEIAKALSFESKVIIMDEPTDALTDTETESLFNVINELREQGCGIVYISHRLKEIFEICDDITVLRDGKFIGECRVCDTNEDGLIEMMVGRKLEEQYPRIAAQQGDISLEVIGLTGSGVHDVSFTLKKGEILGVSGLMGAGRTELMKVIYGALPSERGVINLNGRTVNPVSPQDGLANGIAYISEDRKGDGLVLGLSVKENMSLCALDQLSKGVQIRHADEVIAVDDFIRLFNIKTPSREQIIGNLSGGNQQKVAIAKGLMTKPKVLILDEPTRGVDVGAKKEIYQLINQFKAEGMSIILVSSEMPEVLGMSDRILVMHEGRISGEFMASEADQEKLMACAVGRNPAHAA | not soluble
11 | MKYSEIFKKRLGCKNTDEVFNYLLSHMKETIKGWDFFVAWEKVMNKVGSVEVVLNILNYLVGKENVVEEFKMLLGRYPEIAEVLPALLALREKSIKVVEPLADNVFNYKEYVFRKKKKYNPEEIEMLAEFAEKTGLLAMFEKKNIKSVVDYAIGVEVGLDTNARKNRSGTAMEMITELFVKKICSMNNYRYLSQATSHKIKTSFGYNVSVDKSERSFDFAIDNGHKLYLVETNYYGGGGSKLKSVAGEFTTLFSFIKKETPEHGFIWITDGKGWETAKKPLRESFDKVDYVLNLDMVQKGILEDIILQGL | soluble
12 | MAIDHYENFPVASLLLPRRLRGAVTDIYRFARAADDIADEGAAEDAERLRQLAAFRAELHRIGAEPGTLAVPASADLAPIFTPLAATIARHQLPITPFFDLLSAFEQDISVKRYESHDDLLDYCRRSANPVGRLMLHLYGAVDEANLRDADAICTGLQLVNFWQDVRIDWRKQRVYLPEEDLRRHGVSRDDLAACRLTPQWRELMAFEVQRTRALLHSGAALPRRLPGRIGLELRLVVQGGLRILQRIEDAGYDVFMNRPELGAKDWAVMLWRAFT | not soluble
13 | MEASRLLLLEDSSVDAELIEDQLSRLSPPPAVTRAVGKASFIEALEKQQFDIILADFSLPDFDGMSALDLVMRTRPDTPFIFVSGILGEDAAIDAFRRGATDYVLKQRLVRLPSAVERALAEAREKQERKRAELHKELLVRELSHRVKNTMAMVVSIIRRTAKGSTSIKDYQERLVARVSALAESHALLFQSNWGETNLRDVVKRAIEPHNTFASRVELEGPDGVHVSPKSALALGMILHELATNAQKYGSLSGANGKVEVFWKKILNGDGNDCIDLRWQESGGPPVSVPQDTGFGTTLITRGVQYELQAESEIRYDPDGLQYRVIFPLD | not soluble
14 | MGESSGGGNSRQLQFSRKAGKGVVKTIHEYRSKPLRVGRKGEWRPAISDENRKLIRGVAEIIKIRPINVPDYAVVNPLGIMRQAYGTMVGGIANEPWSLESRKTIEEVVFLPIMDGEVRKGQLEHHHHHH | not soluble
